# B1: PSD2 (parent)
# chain: PLMGETQERERVLTHFSRRYCQCN
# Variants of: B1
# Assay: protein stability index of a GFP-peptide fusion (GPS, HEK-293T) (PSI 1-6); higher = more stable
# Details: c terminus: a fixed tail appended
# 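Note: lentivirally expressed fusions sorted by FACS into six bins by GFP to DsRed ratio, PSI derived from sequencing read proportions per bin multiplied by bin number.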
row,Variant,protein stability index
1,PLMGEHQERERVLTHFSRRYCQCN [T6H],3.15
2,PLMGEVQERERVLTHFSRRYCQCN [T6V],2.44
3,PLMGEAQERERVLTHFSRRYCQCN [T6A],3.27
4,PLMGEKQERERVLTHFSRRYCQCN [T6K],2.14
5,PLMGEPQERERVLTHFSRRYCQCN [T6P],3.02
6,PLMGETQERERCLTHFSRRYCQCN [V12C],4.07
7,PLMGETQERERTLTHFSRRYCQCN [V12T],3.73
8,PLMGETQERERILTHFSRRYCQCN [V12I],3.05
9,PLMGETQERERSLTHFSRRYCQCN [V12S],3.03
10,PLMGETQERERYLTHFSRRYCQCN [V12Y],3.25
11,PLMGETQERERQLTHFSRRYCQCN [V12Q],3.6
12,PLMGETQERERHLTHFSRRYCQCN [V12H],3.24
13,PLMGETQERERALTHFSRRYCQCN [V12A],3.49
14,PLMGETQERERKLTHFSRRYCQCN [V12K],2.96
15,PLMGETQERERDLTHFSRRYCQCN [V12D],2.81
16,PLMGETHERERVLTHFSRRYCQCN [Q7H],3.23
17,PLMGETVERERVLTHFSRRYCQCN [Q7V],3.27
18,PLMGETPERERVLTHFSRRYCQCN [Q7P],2.77
19,PLMGETWERERVLTHFSRRYCQCN [Q7W],1.44
20,PLMGETCERERVLTHFSRRYCQCN [Q7C],3.6
21,PLMGETQERERVLTHPSRRYCQCN [F16P],3.9
22,PLMGETQERERVLTHSSRRYCQCN [F16S],4.35
23,PLMGETQERERVLTHASRRYCQCN [F16A],3.85
24,PLMGETQERERVLTHYSRRYCQCN [F16Y],2.99

row,Variant,protein stability index
1,PLMGETQERERVLTHLSRRYCQCN [F16L],3.79
2,PLMGETQERERVLTHQSRRYCQCN [F16Q],4.78
3,PLMGETQERERVLTHWSRRYCQCN [F16W],2.1
4,PLMGETQERERVLTHMSRRYCQCN [F16M],3.09
5,PLMGETQERERVLTHRSRRYCQCN [F16R],2.21
6,PLMGETQERERVLTHGSRRYCQCN [F16G],3.84
7,PLMGETQERERVLTHFSRRYCQCY [N24Y],2.22
8,PLMGETQERERVLTHFSRRYCQCV [N24V],2.69
9,PLMGETQERERVLTHFSRRYCQCR [N24R],2.14
10,PLMGETQERERVLTHFSRRYCQCP [N24P],3.02
11,PLMGETQERERVLTHFSRRYCQCH [N24H],3.21
12,PLMGETQERERVLTHFSRRYCQCC [N24C],3.05
13,PLMGETQERERVLTHFSRRYCQCE [N24E],3.84
14,PLMGETQERERVLTHFSRRYCQCL [N24L],2.71
15,PLMGETQERERVLTHFSRRYCQCM [N24M],2.96
16,PLMGETQERERVLTHFSRRYCQCT [N24T],3.74
17,PLMGETQERERVLTHFSRRYCQCG [N24G],3.05
18,PLMGETQESERVLTHFSRRYCQCN [R9S],2.49
19,PLMGETQEAERVLTHFSRRYCQCN [R9A],3.5
20,PLMGETQELERVLTHFSRRYCQCN [R9L],2.41
21,PLMGETQEYERVLTHFSRRYCQCN [R9Y],2.14
22,PLMGETQEPERVLTHFSRRYCQCN [R9P],3.29
23,PLMGETQEIERVLTHFSRRYCQCN [R9I],2.07
24,PLMGETQEVERVLTHFSRRYCQCN [R9V],2.94

row,Variant,protein stability index
1,PLMGETQERERVLTHFSRTYCQCN [R19T],3.21
2,PLMGETQERERVLTHFSRFYCQCN [R19F],2.88
3,PLMGETQERERVLTHFSRHYCQCN [R19H],3.24
4,PLMGETQERERVLTHFSRKYCQCN [R19K],3.17
5,PLMGETQERERVLTHFSRSYCQCN [R19S],3.28
6,PLMGETQERERVLTHFSRGYCQCN [R19G],3.71
7,PLMGETQERERVLTHFSRWYCQCN [R19W],2.14
8,PLMGETQERERVLTHFSRYYCQCN [R19Y],1.98
9,PLMGETQERERVLTHFSRVYCQCN [R19V],3.09
10,PLMGETQERERVLTHFSREYCQCN [R19E],3.74
11,PLMGETQERERVLTHFSRMYCQCN [R19M],2.22
12,PLMGETQERERVLTHFSRIYCQCN [R19I],2.54
13,PLMPETQERERVLTHFSRRYCQCN [G4P],3.62
14,PLMQETQERERVLTHFSRRYCQCN [G4Q],2.43
15,PLMKETQERERVLTHFSRRYCQCN [G4K],2.6
16,PLMLETQERERVLTHFSRRYCQCN [G4L],2.02
17,PLMNETQERERVLTHFSRRYCQCN [G4N],2.92
18,PLMHETQERERVLTHFSRRYCQCN [G4H],2.93
19,PLMDETQERERVLTHFSRRYCQCN [G4D],3.24
20,PLMGETQHRERVLTHFSRRYCQCN [E8H],1.97
21,PLMGETQYRERVLTHFSRRYCQCN [E8Y],1.79
22,PLMGETQMRERVLTHFSRRYCQCN [E8M],1.62
23,PLMGETQLRERVLTHFSRRYCQCN [E8L],1.89
24,PLMGETQERERVLTHFSRRYCQVN [C23V],3.56

row,Variant,protein stability index
1,PLMGETQERERVLTHFSRRYCQPN [C23P],4.09
2,PLMGETQERERVLTHFSRRYCQWN [C23W],2.67
3,PLMGETQERERVLTHFSRRYCQHN [C23H],3.44
4,PLMGETQERERVLTHFSRRYCQTN [C23T],3.87
5,PLMGETQERERVLTHFSRRYCQSN [C23S],3.87
6,PLMGETQERERVLTHFSRRYCQRN [C23R],3.6
7,PLMGETQERERVLTHFSRRYCQMN [C23M],2.92
8,PLMGETQERERVLTHFSRRYCQKN [C23K],4.92
9,PLMGETQERERVLAHFSRRYCQCN [T14A],2.62
10,PLMGETQERERVLQHFSRRYCQCN [T14Q],2.56
11,PLMGETQERERVLDHFSRRYCQCN [T14D],2.92
12,PLMGETQERERVLNHFSRRYCQCN [T14N],2.63
13,PLMGETQERERVLPHFSRRYCQCN [T14P],2.88
14,PLMGETQERERVLIHFSRRYCQCN [T14I],2.13
15,PLMGETQERERVLVHFSRRYCQCN [T14V],2.69
16,PLMGETQERERVLYHFSRRYCQCN [T14Y],1.71
17,PLMGETQERERVLTHFSRRYCKCN [Q22K],3.02
18,PLMGETQERERVLTHFSRRYCTCN [Q22T],3.08
19,PLMGETQERERVLTHFSRRYCWCN [Q22W],2.49
20,PLMGETQERERVLTHFSRRYCDCN [Q22D],3.85
21,PLMGETQERERVLTHFSRRYCGCN [Q22G],2.29
22,PLMGETQERERVLTHFSRRYCPCN [Q22P],2.71
